The source of these data is paper PMC2211892.

In this experiment the target is StcE′ E435D-His (Escherichia coli O157:H7) (UniProt O82882). As to the kind of experiment: flow cytometry on cells.

B1: C1 esterase inhibitor (C1-INH), purified (natural protein)
chain: NPNATSSSSQDPESLQDRGEGKVATTVISKMLFVEPILEVSSLPTTNSTTNSATKITANTTDEPTTQPTTEPTTQPTIQPTQPTTQLPTDSPTQPTTGSFCPGPVTLCSDLESHSTEAVLGDALVDFSLKLYHAFSAMKKVETNMAFSPFSIASLLTQVLLGAGENTKTNLESILSYPKDFTCVHQALKGFTTKGVTSVSQIFHSPDLAIRDTFVNASRTLYSSSPRVLSNNSDANLELINTWVAKNTNNKISRLLDSLPSDTRLVLLNAIYLSAKWKTTFDPKKTRMEPFHFKNSVIKVPMMNSKKYPVAHFIDQTLKAKVGQLQLSHNLSLVILVPQNLKHRLEDMEQALSPSVFKAIMEKLEMSKFQPTLLTLPRIKVTTSQDMLSIMEKLEFFDFSYDLNLCGLTEDPDLQVSAMQHQTVLELTETGVEAAAASAISVARTLLVFEVQQPFLFVLWDQQHKFPVFMGRVYDPRA
In the case of B1, the fold level of C1-INH on erythrocyte surfaces against StcE′-His is 22 fold.
